Reference: US20110136145A1, “METHODS FOR PROMOTING FUSION AND REPROGRAMMING OF SOMATIC CELLS” (THE JOHNS HOPKINS UNIVERSITY, priority 2008, published 2011)

How the values were obtained:
[1] = system: ESC-induced Oct4-GFP re-activation in NSCs; test: CLEAR analysis of ESC fusion-induced reprogramming (PEG-induced fusion of Z-Red ESCs and CIPOE NSCs, flow cytometry)
Text: CLEAR strategy uses engineered ESCs and NSCs for monitoring fusion-induced DsRed expression and reprogramming-induced GFP expression (FIG. 1A). Z-Red ESCs were derived from a clonal ESC line containing one copy of a transgene (CAG-loxP-LacZ::neomycin-polyA-loxP-DsRed.T3) as a Cre recombination excision reporter.
Adult NSCs were isolated from Oct4-GFP (GOF 18-A PE-EGFP) transgenic mice and transduced by retroviruses to stably co-express Cre and the puromycin resistance gene through a bicistronic cassette (termed CIPOE NSCs hereafter). Somatic cells with Oct4-GFP transgene integration have been used previously to investigate reprogramming, in which the regulatory elements of Oct4 direct reliable GFP reactivation from somatic genomes in reprogrammed ESC-like hybrid cells (also see FIG. 3). Multiple CIPOE NSC lines from Oct4-GFP transgenic mice were established, characterized and used for subsequent cell fusion experiments.
To quantitatively analyze the reprogramming-induced Oct4-GFP re-activation, dual-color flow cytometry was used to display and measure the cell population that underwent PEG-induced cell fusion. Viable cells were identified by their typical FSC (Forward Scatter) and SSC (Side Scatter) properties. To ensure appropriate gating for […] and DsRed+ events and to compensate the spectrum crossover of GFP and DsRed signals, the system was first calibrated using multiple control cells, including Z-Red ESCs, CIPOE NSCs, mixed Z-Red ESCs and CIPOE NSCs without PEG. Z-Red ESCs transfected with a constitutive Cre expression plasmid, and CIPOE NSCs transfected with a Cre excision reporter plasmid (FIG. 4A).
ESC fusion-induced Oct4 re-activation from NSCs was quantitatively measured using two different approaches. In the first approach, the reprogramming frequency (Rf) is determined by the ratio of GFP DsRed+ cells to total DsRed+ cells. […] In the second approach, the reprogramming efficacy is determined by the distribution of GFP fluorescence intensities of individual cells from the DsRed+ population (FIG. 4C). This analysis provides a measurement of the efficiency of Oct4-GFP re-activation in NSCs after successful fusion.
The protocol was optimized for PEG-induced cell fusion between ESCs and NSCs to achieve maximum efficiency and minimal toxicity. Equal numbers of ESCs and NSCs were mixed thoroughly and spun down in PBS. The pellet was loosened by gentle tapping and 50% PEG (500 μl for 1×10^7 cells) was added to the cells continuously over one minute while swirling the mixture in 37° C. water bath Next, 2 ml of ESC medium was layered on top of PEG-cell mixture and one-minute incubation in 37° C., followed by low-speed centrifugation at 1,800 rpm for 5 minutes. After removing the supernatant, the pellet was incubated with ESC medium for one minute, washed, resuspended and plated onto gelatin-coated dishes and grown in Dubelcco's Modified Eagle's Medium, 15% fetal bovine serum supplemented with mouse leukemia inhibitory factor (ESGRO), 0.1 mM nonessential amino acids, 0.1 mM β-mercaptoethanol, and 50 U/ml penicillin/50 μg/ml streptomycin (ESC medium). […] The following pharmacological inhibitors were applied in ESC-fusion experiments only during the first 48 hours after fusion. DMOG (5-10 μM; BioMol), Anacardic acid (5-10 μM; Calbiochem), Trichostatin A (TSA, 100 nM-1 μM; Sigma) and azidothymidine (AZT, 1-5 μM; Sigma).

G9a = test: Quantitative real-time PCR of G9a expression in CIPOE NSCs; format: cell-based, mouse; details: CIPOE cells
Text: Shown is a summary of quantitative real-time PCR analysis of the expression level of G9a in Z-Red ESCs, CIPOE NSCs, CIPOE NSCs with control shRNA or G9a-targeted shRNA. The mRNA abundance was normalized to the levels in CIPOE cells. Values represent mean+SEM (n=3; * P<0.01, Students t-test). […] Shown are results from cell fusion experiments between Z-Red and CIPOE, CIPOE-shControl, or CIPOE-shG9a cells. Values represent mean+SEM (n=3; *- P<0.01 Students t-test). (C) Summary of reprogramming efficacy. Cumulative distribution plots of DsRed+ population with graded GFP fluorescence intensities are shown for comparison of the reprogramming efficacy of Z-Red ESCs with CIPOE-shControl, or CIPOE-shG9a cells at day 2 and day 4 after cell fusion. Values represent mean±SEM (n=3; *: P<0.01, Kolmogorov-Smirnov test).
Next, the molecular identities of epigenetic factors that play critical roles in reprogramming were examined. […] Using a previously validated small short-hairpin RNA (shRNA) for mouse G9a, the expression of endogenous G9a was knocked down in CIPOE cells, as shown by quantitative real-time PCR (FIG. 7A). […]
(§1) For real-time quantitative PCR, total RNAs were purified using RNAeasy kit (Qiagen) and converted to cDNA by SuperScript III (Invitrogen). Triplicate cDNA samples were added to a SYBR-green based quantitative PCR reaction mix and analyzed using the ddCt methods. […]

Oct4 = test: Conventional RT-PCR and quantitative PCR of endogenous Oct4 expression in adult NSCs; format: cell-based, mouse
Experimental: (§2) (A) is a schematic drawing of Oct4 promoter with 16 CpG sites, which are located between the proximal enhancer and exon 1. Bisulfite sequencing analysis is performed for genomic DNA extracted from CIPOE, Z-Red ESCs, fusion clone B3, CIPOE-shControl and CIPOE-shG9a NSCs. (B, C) show conventional RT-PCR (B) and quantitative real-time PCR(C) are used to compare the mRNA abundance of Oct4 in CIPOE, Z-Red ESCs, fusion clone B3, CIPOE-shControl and CIPOE-shG9a NSCs. Data represent mean+SEM. (n=3, *. P<0.01, Student's t-test).
Reprogramming requires erasure of the somatic epigenoine including both histone and DNA modification. Next it was further tested whether DNA demethylation of pluripotency gene Oct4 induced by ESC-mediated reprogramming may partially account for the facilitating effects of histone demethylation during reprogramming. […] The impact of G9a knockdown on endogenous Oct4 expression was also evaluated. […] The mRNA abundance of Oct4 expression measured in bulk adult NSC cultures with G9a knocking-down reached around 10% of that in ESCs, while little expression was detected in CIPOE or CIPOE cells expressing the control shRNA.
as §1

Oct4 promoter = test: Bisulfite sequencing of Oct4 promoter in CIPOE NSCs; format: cell-based, mouse; details: independent of cell fusion
Experimental: as §2
Reprogramming requires erasure of the somatic epigenoine including both histone and DNA modification. […] The impact of G9a knockdown on endogenous Oct4 expression was also evaluated. […] The mRNA abundance of Oct4 expression measured in bulk adult NSC cultures with G9a knocking-down reached around 10% of that in ESCs, while little expression was detected in CIPOE or CIPOE cells expressing the control shRNA.
For bisulfite genomic sequencing, 500 ng of genomic DNA from each sample was digested by EcoRI overnight, followed by boiling for 5 min and incubation in 0.3 M NaOH at 50° C. for 15 min. […] Efficiency of bisulfite conversion was monitored by the presence of unconverted C residues in non-CpG regions, which were only seldom seen. […]

[2] = 100 nM, applied only during the first 48 hours after fusion

CC(/C=C/C(=O)NO)=C\[C@@H](C)C(=O)c1ccc(N(C)C)cc1 [TSA, Trichostatin A]
Effects (on reprogramming) [1, 2]: pro-differentiation | Effects (toxicity to the cells) [1, 2]: toxic

N[C@@H]1C[C@H]1c1ccccc1 (racemic) [Tranylcypromine]
Effects (on reprogramming) ([1]; 2 μM, applied only during the first 48 hours after fusion): mild reprogramming deficit

CCCCCCCCCCCCCCCc1cccc(O)c1C(=O)O [Anacardic acid]
Effects (on reprogramming) ([1]; 5 μM, applied only during the first 48 hours after fusion): mild reprogramming deficit;

B1: shRNA-G9a: short hairpin RNA for mouse G9a, …, cloned into retroviral vector pUEG (nucleic acid, listed as Mus musculus)
chain: TCTATCGCCTTGAGCCGTTGGCCTTCAGATAGGCTGATTTGGTTGGTGTCTTGCTCTTTCTGTGGGAAGGCTGCGGCTCACTTCCTTCTGACTTCTTGATAATTTTGCATTAGACATTTAACTCTTCTTTCTATGATCTTTCCTTCTAGACACTGAGTTTTTTGGTTGTTGCCTAAAACCTTTTCAGAAATCCCTTCCCTCGCCATCACACTGACATGAGTGTGGGTCTTCCTGGTCCCCACAGTTTGCCTAGTTCTGAGGAAGCATCGAATTCTGGGAACGCCTCATCAATGCCTGCAGTTTTTCATCCCGAGAACTATTCTTGCTTACAAGGGTCTGCTACTGAGATGCTCTGCACAGAGGCTGCCTCTCCTCGCCCTTCCTCTGAAGACCTGCCTCTTCAAGGCAGCCCTGATTCTTCTACCAGTCCCAAACAAAAGCTCTCAAGTCCTGAGGCTGACAAGGGCCCTGAGGAGGAGGAGAACAAGGTCCTTGCCAGGAAGCAGAAGATGCGGACTGTGTTCTCTCAGGCCCAGCTGTGTGCACTCAAGGACAGGTTTCAGAAGCAGAAGTACCTCAGCCTCCAGCAGATGCAAGAACTCTCCTCCATTCTGAACCTGAGCTATAAGCAGGTTAAGACCTGGTTTCAAAACCAAAGGATGAAGTGCAAGCGGTGGCAGAAAAACCAGTGGTTGAAGACTAGCAATGGTCTGATTCAGAAGGGCTCAGCACCAGTGGAGTATCCCAGCATCCATTGCAGCTATCCCCAGGGCTATCTGGTGAACGCATCTGGAAGCCTTTCCATGTGGGGCAGCCAGACTTGGACCAACCCAACTTGGAGCAGCCAGACCTGGACCAACCCAACTTGGAACAACCAGACCTGGACCAACCCAACTTGGAGCAGCCAGGCCTGGACCGCTCAGTCCTGGAACGGCCAGCCTTGGAATGCTGCTCCGCTCCATAACTTCGGGGAGGACTTTCTGCAGCCTTACGTACAGTTGCAGCAAAACTTCTCTGCCAGTGATTTGGAGGTGAATTTGGAAGCCACTAGGGAAAGCCATGCGCATTTTAGCACCCCACAAGCCTTGGAATTATTCCTGAACTACTCTGTGACTCCACCAGGTGAAATATGAGACTTACGCAACATCTGGGCTTAAAGTCAGGGCAAAGCCAGGTTCCTTCCTTCTTCCAAATATTTTCATATTTTTTTTAAAGATTTATTTATTCATTATATGTAAGTACACTGTAGCTGTCTTCAGACACTCCAGAAGAGGGCGTCAGATCTTGTTACGTATGGTTGTGAGCCACCATGTGGTTGCTGGGATTTGAACTCCTGACCTTCGGAAGAGCAGTCGG
modifications: cloned into retroviral vector pUEG
notes: short hairpin RNA for mouse G9a, …, cloned into retroviral vector pUEG
expression of endogenous G9a (G9a): knocked down | expression of endogenous Oct4 (Oct4; adult NSCs, conventional and quantitative PCR): partially re-activated | mRNA abundance of Oct4 expression (Oct4; bulk adult NSC cultures, relative to that in ESCs): around 10% | increase in the reprogramming frequency ([1]; day 2, expressed in CIPOE NSCs): 110% | efficacy of ESC-induced Oct4-GFP re-activation ([1]; day 2 and day 4, expressed in CIPOE NSCs): significantly enhanced | increase in the reprogramming frequency ([1]; day 4, expressed in CIPOE NSCs): 26% | DNA methylation in Oct4 promoter regions (Oct4 promoter): considerably decreased
